Test results as given in patent US20150023971A1.

How the values were obtained:
[1] = target: T1, …; assay: SPOT length analysis, dot 27, HRP-S-protein detection
T1 sequence (peptide): SDFAKNFVQT

[2] = target: T2, SSDFAK; assay: SPOT length analysis, dot 60, HRP-S-protein detection
T2 sequence (peptide): SSDFAK

[3] = target: T3, …; assay: SPOT length analysis, dot 9, anti-histidine detection
T3 sequence (peptide): FRSSDFAKNFVQT

[4] = target: T4, FRSSDFA; assay: SPOT length analysis, dot 48, anti-histidine detection
T4 sequence (peptide): FRSSDFA

[5] = target: T5, SSDFAKN; assay: SPOT length analysis, dot 50, HRP-S-protein detection
T5 sequence (peptide): SSDFAKN

[6] = target: T6, IFRSS; assay: SPOT length analysis, dot 68, anti-histidine detection
T6 sequence (peptide): IFRSS

[7] = target: T7, …; assay: SPOT length analysis, dot 13, HRP-S-protein detection
T7 sequence (peptide): FRSSDFAKNFVQ

[8] = target: T7, …; assay: SPOT length analysis, dot 13, anti-histidine detection
[9] = target: T8, FRSSDFAK; assay: SPOT length analysis, dot 39, anti-histidine detection
T8 sequence (peptide): FRSSDFAK

[10] = target: T9, AKNFVQT; assay: SPOT length analysis, dot 54, HRP-S-protein detection
T9 sequence (peptide): AKNFVQT

[11] = target: T10, …; assay: SPOT length analysis, dot 3, HRP-S-protein detection
T10 sequence (peptide): IFRSSDFAKNFVQTD

[12] = target: T11, RSSDF; assay: SPOT length analysis, dot 70, anti-histidine detection
T11 sequence (peptide): RSSDF

[13] = target: T12, SDFAKNFV; assay: SPOT length analysis, dot 42, HRP-S-protein detection
T12 sequence (peptide): SDFAKNFV

[14] = target: T13, …; assay: SPOT length analysis, dot 16, HRP-S-protein detection
T13 sequence (peptide): RIFRSSDFAKN

[15] = target: T14, RSSDFA; assay: SPOT length analysis, dot 59, anti-histidine detection
T14 sequence (peptide): RSSDFA

[16] = target: T15, AKNFVQTD; assay: SPOT length analysis, dot 45, HRP-S-protein detection
T15 sequence (peptide): AKNFVQTD

[17] = target: T16, DFAKNFVQ; assay: SPOT length analysis, dot 43, anti-histidine detection
T16 sequence (peptide): DFAKNFVQ

[18] = target: T17, RIFRSS; assay: SPOT length analysis, dot 56, anti-histidine detection
T17 sequence (peptide): RIFRSS

[19] = target: T18, SSDF; assay: SPOT length analysis, dot 83, HRP-S-protein detection
T18 sequence (peptide): SSDF

[20] = target: T19, SDFAKNF; assay: SPOT length analysis, dot 51, anti-histidine detection
T19 sequence (peptide): SDFAKNF

[21] = target: T13, …; assay: SPOT length analysis, dot 16, anti-histidine detection
[22] = target: T20, …; assay: SPOT length analysis, dot 20, HRP-S-protein detection
T20 sequence (peptide): SSDFAKNFVQT

[23] = target: T21, SSDFA; assay: SPOT length analysis, dot 71, anti-histidine detection
T21 sequence (peptide): SSDFA

[24] = target: T22, …; assay: SPOT length analysis, dot 26, HRP-S-protein detection
T22 sequence (peptide): SSDFAKNFVQ

[25] = target: T23, NFVQT; assay: SPOT length analysis, dot 77, HRP-S-protein detection
T23 sequence (peptide): NFVQT

[26] = target: T24, SDFAK; assay: SPOT length analysis, dot 72, anti-histidine detection
T24 sequence (peptide): SDFAK

[27] = target: T25, FAKNFVQT; assay: SPOT length analysis, dot 44, HRP-S-protein detection
T25 sequence (peptide): FAKNFVQT

[28] = target: T26, RSSD; assay: SPOT length analysis, dot 82, HRP-S-protein detection
T26 sequence (peptide): RSSD

[29] = target: T27, IFRSSD; assay: SPOT length analysis, dot 57, HRP-S-protein detection
T27 sequence (peptide): IFRSSD

[30] = target: T28, …; assay: SPOT length analysis, dot 34, HRP-S-protein detection
T28 sequence (peptide): SDFAKNFVQ

[31] = target: T25, FAKNFVQT; assay: SPOT length analysis, dot 44, anti-histidine detection
[32] = target: T29, …; assay: SPOT length analysis, dot 22, anti-histidine detection
T29 sequence (peptide): RIFRSSDFAK

[33] = target: T5, SSDFAKN; assay: SPOT length analysis, dot 50, anti-histidine detection
[34] = target: T30, …; assay: SPOT length analysis, dot 4, anti-histidine detection
T30 sequence (peptide): RIFRSSDFAKNFVQ

[35] = target: T31, RSSDFAKN; assay: SPOT length analysis, dot 40, anti-histidine detection
T31 sequence (peptide): RSSDFAKN

[36] = target: T32, …; assay: SPOT length analysis, dot 18, HRP-S-protein detection
T32 sequence (peptide): FRSSDFAKNFV

[37] = target: T33, …; assay: SPOT length analysis, dot 24, HRP-S-protein detection
T33 sequence (peptide): FRSSDFAKNF

[38] = target: T34, IFRSSDF; assay: SPOT length analysis, dot 47, anti-histidine detection
T34 sequence (peptide): IFRSSDF

[39] = target: T35, …; assay: SPOT length analysis, dot 33, HRP-S-protein detection
T35 sequence (peptide): SSDFAKNFV

[40] = target: T23, NFVQT; assay: SPOT length analysis, dot 77, anti-histidine detection
[41] = target: T36, …; assay: SPOT length analysis, dot 8, anti-histidine detection
T36 sequence (peptide): IFRSSDFAKNFVQ

[42] = target: T37, FAKNF; assay: SPOT length analysis, dot 74, anti-histidine detection
T37 sequence (peptide): FAKNF

[43] = target: T38, IFRSSDFA; assay: SPOT length analysis, dot 38, anti-histidine detection
T38 sequence (peptide): IFRSSDFA

[44] = target: T39, …; assay: SPOT length analysis, dot 23, HRP-S-protein detection
T39 sequence (peptide): IFRSSDFAKN

[45] = target: T40, …; assay: SPOT length analysis, dot 30, anti-histidine detection
T40 sequence (peptide): IFRSSDFAK

[46] = target: T41, VQTD; assay: SPOT length analysis, dot 91, anti-histidine detection
T41 sequence (peptide): VQTD

[47] = target: T42, KNFVQT; assay: SPOT length analysis, dot 65, HRP-S-protein detection
T42 sequence (peptide): KNFVQT

[48] = target: T33, …; assay: SPOT length analysis, dot 24, anti-histidine detection
[49] = target: T43, …; assay: SPOT length analysis, dot 21, anti-histidine detection
T43 sequence (peptide): SDFAKNFVQTD

BLU Sprotein [1]: 19100 BLU | BLU Sprotein [2]: 15900 BLU | BLU His [3]: 19700 BLU | BLU His [4]: 16600 BLU | BLU Sprotein [5]: 15900 BLU | BLU His [6]: 25300 BLU | BLU Sprotein [7]: 199000 BLU | BLU His [8]: 25800 BLU | BLU His [9]: 19000 BLU | BLU Sprotein [10]: 16700 BLU | BLU Sprotein [11]: 76200 BLU | BLU His [12]: 16100 BLU | BLU Sprotein [13]: 15500 BLU | BLU Sprotein [14]: 63600 BLU | BLU His [15]: 18300 BLU | BLU Sprotein [16]: 15300 BLU | BLU His [17]: 15500 BLU | BLU His [18]: 122000 BLU | BLU Sprotein [19]: 14000 BLU | BLU His [20]: 17200 BLU | BLU His [21]: 53000 BLU | BLU Sprotein [22]: 18400 BLU | BLU His [23]: 15800 BLU | BLU Sprotein [24]: 18500 BLU | BLU Sprotein [25]: 15600 BLU | BLU His [26]: 15900 BLU | BLU Sprotein [27]: 23600 BLU | BLU Sprotein [28]: 14900 BLU | BLU Sprotein [29]: 18100 BLU | BLU Sprotein [30]: 18900 BLU | BLU His [31]: 80400 BLU | BLU His [32]: 45500 BLU | BLU His [33]: 16700 BLU | BLU His [34]: 141000 BLU | BLU His [35]: 18700 BLU | BLU Sprotein [36]: 448000 BLU | BLU Sprotein [37]: 70400 BLU | BLU His [38]: 24400 BLU | BLU Sprotein [39]: 19000 BLU | BLU His [40]: 17300 BLU | BLU His [41]: 41600 BLU | BLU His [42]: 31900 BLU | BLU His [43]: 21400 BLU | BLU Sprotein [44]: 29800 BLU | BLU His [45]: 20800 BLU | BLU His [46]: 15100 BLU | BLU Sprotein [47]: 14300 BLU | BLU His [48]: 20100 BLU | BLU His [49]: 15700 BLU
B1: recombinant his-S-tagged pro-domain of human BDNF (residues Ala1-Arg110), from pET-30 Xa/LIC, E. coli (protein, not shown: small tags and cut ends)
chain: APMKEANIRGQGGLAYPGVRTHGTLESVNGPKAGSGLTSLADTFEHVIEELLDEDQKVRPNEENNKDADLYTSRVMLSSQVPLEPPLLFLLEEYKNYLDAANMSMRVRR
